system: HEK293 cells; type: cell-based, human; settings: luminescence from secreted Gluc in supernatant 24 hours after transfection of HEK293 cells; circular RNA encoding Gluc with the named IRES (UTR truncated to 675 nt)

Molecule | Expression
Bovine nidovirus TCH5 (nucleic acid, listed as Bovine nidovirus) DNA: CACCAATAGATTAGTCAAGCTGTCTATAGGCATAAACTAACCCCCAACCCCATTACCCCGGGGCCAGGTGGGCCGCCGCCTTCGGGCAAACCCGTGCGCTGGTATAATCAAGGTTCACAGCCAGATTCACTGCCGGTTAGCTAGTGGGGCGGTAGCCTGGCAAAACCCGAAGAGGTTGGAAAGGGAACTTCAGGGTAGTTTATCCTAGGCTAGCGTAGCTACAGTTCGGTCAAGATAACCGTCCTGGTGCTAGGGCTAGTAGAGACAGTGGTAACTTGGACAAGGGTCCAGGGCCACTTTAGGGAATACCCTACGGAAGGCTAGGTCCGTAAGGAAGACCCCCGCAGTTGTCCGCGGTTGAGCAGAGCTCCTGCGTAGACAAAAGGCAAAAAGTGGATTACATTCGCCTGCAGGAAAAGGCAAACGTCGTTGGAGTCGGAGCTAAAGTACTGGACGATTGATACCACGCCTGCTGCGGTAGATAAA | 1.17E+05
Rafivirus LPXYC222841 (nucleic acid, listed as Rafivirus sp.) DNA: GTGTCCGGGAAGCGACTCAAGCTTTTGACTGAGTCTCTACACCTTCATCCGTAACATCTTTAAGTTTATGTGCCTATGGACCTCTAGTGCACTGCCATCACCGGGGGTGTATTGGACTGGTTTTTCCACAATCCATTCATCCTGAGGAATTTTGGCTTTGTTACTAGGATGGTCCCACCACACGCTTATCTGTGCCTATTGTGTCAACCATGTTCTTAAGTAGTTGTGCCCGTGGGTGAGTAGATAACCACAACAATCCGATAAAGCATCTCGCAAGGATGTGAGTAATGGAGTGTATGTGCTACAGAGACCCACAACCTGAACCAAGAGAGACACAGTGAGGATTGTAAAGGGGGAACTCTTTGAAAGGGCATGTCCCGCAATTCCTACTGACTGACACCGGGGGTTGGTGTCGGTGGATTTTAGCAAATCCTGTTACTGGGTGATAGCCTTGTGCACTTCACTTGGTTCTTGTATAAGTGCTGTA | 2.22E+05
Bat Iflavirus (nucleic acid, listed as Iflavirus sp.) DNA: ACGAATCGGTATACGCTTCGGTACCTATTGTTGCAAGTTCGTTCCCTATTTTCGATTTGCCTGCCCGAATTTGACTCAAACAATTGTGACATACTATGTCTCTGTTTGAAAGCACTACACGAGTTTGCGCCCAGCATGTATGTTTTCAAGTCTTTTGTATAAGTCTGCCTCTATAGTGGTTTTCTTTGACCTTAAAGCCTTGTCAACCATCCTATATGCTGCATCGAGACTTGATGTCAATCTGCCTCTACTACGCAAATGTCTAGTAATTAGTTATAAGGTTTTACTATTTTCCCTCATTTCCAATTTTAGTTTGTAGTGTATGTGAGTATCATTCTTACTCCGACTGTTAAGAGAAACCAATTTATAGTCGTTAAATATGATAAATGGAATGAATGATGGTGTCATTTTAAAAACACTCTTCTCTATAGGCGTAAGCATTCTCGCTCTTAGAGTCGTAAAGAAGAAATGCCGTGTCTATCAGTATGTTATGCGATTTATTTTCTGCCACGCGCTTCTAGTGCAATCTAGTTGACATACAGACATTGCCTACCACTCGCGAGGGTCGACCGGTAGTGTAAGGAGTAAGTGATGATTTCCGCTTATTCTGTACCCTTTGCCTGGTGAGGACAGATCCTGACTAATTTTAAATATAAATGAACACTAGCTTCCAAG | 9.76E+04
Bovine picornavirus isolate TCH6 (nucleic acid) DNA: TTGGATCTGAGCAGGGGCCCCCTTTGGGTTGCTTTACAACTCAACTGGGGGTTAAAAAACGTCTAACCCGACACGCCAGAGGGATCTGGTTTCCTTTTATTTCTTTTACTCACCACTGGATGCAGATTGACGATAAACGTTGTTGTTTGTGACTATTGACTTGATCTGCTTCTACGGGTTTACTTTCACTGTTATACTTCTTGCTTTGTTTGGTGTTCACTGTACTTTGTCTCCTTCTACATTTCACA | 1.21E+05
Bovine hepacivirus (nucleic acid, listed as Hepacivirus sp.) DNA: CCATCGACACTCCAGGCTCACGGATTAAGTTAGGTTCCGCCGAAGCGGGCTAACCAGGCCCCTAGTAGGAGGCGCCTATCCCGTGAGCCCTTTCCCCACGGATTGAGTGGAGCTGGAGCTGGGAAGGACCGAGTACGGTCCAATCGAGAAGAACCCTGATGAACATTCCAGGCCTCTTCGGTAGATTTGGATATATCCACCAGTGAAGGCGGGGTCGTGGGTACAGGCCCCCTAGTCCACACAGCCTGATAGGGTCCTGCCGCAGGATCCGTGGGTGCGGCTGTACATGTACC | 1.89E+05
Bat dicibavirus (nucleic acid) DNA: GTATAGCACCGGAATGGTATTTTACTACTCCAAGTATACGTACTAGGAGTTAAACCCTGTAATTTACAGGGGATTTAGTGACTTTTATCCGTAAAAGTCGATTGGACGTTAATCGGTAACGAGGCCAAGTACCGTGAACCAATTTAAAAACGTATTTTCTCATGTGGTAGAACCAACTTGGAAATAGCATGGCATATAGGTTGTTTAGGG | 7.43E+04
Breda virus (nucleic acid) DNA: ATCACCTAGTACTTACAAGCGGGTCAAACCGCCCTCCGGAACGGTCATAACCCCCTCCCGAACGTGCGCTTGACGTGACTGGTCTTTCAGTCTAGCTTTCTGAGAAATACTCCGGGGTTGTAACCCACCATTTTGACCTTTGGTCAGTTTGGTAACACTCCAACCAAACAGCATCTGACCCACCTCCAGCTTGCTGCAGGCCATTTGGACCAAACGGGTTCAGATATCTTGTGGCTAAACCTCTGACCCACCTCCAGTTTACTGCAGGCCTTTTGGACTAAACGGGTACAGACTCTTTGTGGTTAGTTTTTAACTACCCACTGTTTAGCCGCCAACCTGATTTTTATTGTTACAAAATTTTGTGTTTACACATTATTTTCTTACGGTTGGCAGTTTGTTTGGTTGTTTGCACAGTTTTTGCTGATACCAATTTTTACTGTGCTTTTGGTGTTTTCGGCTAAGGCTGTTTTTCACATACTTAGTTTGCTTGAAGTAACCTTCACAACATCTGTTTTGTTTTTGGTTTCTAAGGTAAAGAGTTTCAGGAAAAAACATAGGCGCCCATCTTGTGGTGTCTAGTTTTAATTAATCTGGCAAACAAGTATCAAGTCATCGACTCCCTTTGGAGTGAGACTTACGAGTACCAATTCGCCTATTTTGGCCATCCATATAAAA | 1.16E+05
Bovine rhinitis A virus (nucleic acid, Bovine rhinitis A virus) DNA: TTTTGCGGCTCTGCCGCCGTTCGGGTTTTACCTGTTTTCACAGAGCAAAACAGGACCTCTAGTTTCGTGCTTAAACGAGATCATGCTCGAACTAGAACTATAACGCTGGTCACTGGACCCGTGCCGCGCCTTGCGGATCTTTGCGGGAATGGTGGCTAGTGGGCTGTGGAAGTGACTCTAACCACACGCCCCTCAAGTGTGGGAAAACACGAACTGGTGTAGCGACGACGATAGGCCTTGGGACACCCTCTCCAGTGATGGAGACCCAAGGGGCCAAAAGCCACGCCTTGTGCCCTGTCGTTCACAACCCCAGTGCAGTTCGTGCCAGTACCTGCTTTTGGGAAGTGTGCTTTGGACAGCTGAAAACAGTCCTAGTGGGAGACTAAGGATGCCCAGGAGGTACCCGGAGGTAACAAGTGACACTCTGGATCTGACTTGGGGAGAGCGGGTCTGCTTTACAGACGCCACTCTTTAAAAAACTTCTATGTCTCGTCAGGCACCGGAGGCCGGGCCTTTTCCTTTAAAACAATACACTTT | 3.62E+06
Botrytis cinerea mitovirus 4 RdRp (nucleic acid, listed as Mitovirus sp.) DNA: GCCCCGCCGACCTTCCTATTTATTTCTAAATAGGAAGGTCCCGACTAGTCGGATAATTCGGTTTAACGAATTATGGTTAGATCTATTAAAGTTAAAATAGATTGAATTTCTTTCTCATCCTCCTTATTCCTATACTTTGGGAGTAAATGACAAATGTCTATCCTCAAACCGAAATGGCTTAAGTGATGAATTTGAAAGAAAGGTAGGTTTTAAGAATATAAGGCATCAATATATTATACCCTTGAATGTTAAGTGACCACGGCGTGACGATTAGGGCTATCTTAGGATAGACAGCCATCTAACGCGACAGCAGTGGAAATCAGCTTAGCATCTCAAGATCATGTATAATATATACATAACCTTACAATTATAAAACCAAACCAAAACACACTATAATTTTATATAAATTATAGAAGTATCGGACCTGGACGGTACCTACTATTAACTGATAGTAGCCAAATGCAGGAAGCTC | 9.68E+04
Bovine viral diarrhea virus 3 (nucleic acid) DNA: GTATACGCCCAGTTAGTTCAGGTGGACGTGTACGATTGGGTATCCCAAATTAATAATTTGGTTTAGGGACTAAATCCCCTGGCGAAGGCCGAAACAGGTTAACCATACCTTTAGTAGGACGAGCATAATGGGGGACTAGTGGTGGCAGTGAGCTCCCTGGATCACCGAAGCCCCGAGTACGGGGTAGTCGTCAATGGTTCGACGCATCAAGGAATGCCTCGAGATGCCATGTGGACGAGGGCGTGCCCACGGTGTATCTTAACCCAGGCGGGGGCCGCTTGGGTGAAATAGGGTTGTTATACAAGCCTTTGGGAGTACAGCCTGATAGGGTGTTGCAGAGACCTGCTACACCACTAGTATAAAAACTCTGCTGTACATGGCAC | 2.70E+06
Botrytis cinerea mitovirus 2 RdRp (nucleic acid, listed as Mitovirus sp.) DNA: GGAACTTTTCAGTTCCAGAAGTGGCTTTATTAAGCCTTCAAAGTTTACACTTTGAACCTGCGATTAATTCCCCATAGTGACTCTTGTTACTGTGAATTAGGAATAGTTGTAGTTCAACTTCTAATGAGGTGAACAATATAATAACTCATCTTATTAACCCTATACGTAGACAATTGTCCAAAGAGACAGTTGGAATTCTGCCAATCTGGAATGTTTGGTACGCGTAGAAGATAATAAGAGACCCTCTATTCCCCTGCCTCATGACTAAGTCATGGCCCGGGGTGTAATAGAGATACTTTTATATATTATACAATC | 8.73E+04
Boone cardiovirus 1 (nucleic acid, listed as Cardiovirus sp.) DNA: TACGATCGCTGTACATTCCACTACTGCCAATTAGCTCCCCCTTCCCGTTGCTCCCCTCTATAAGGAGAGCCTTCTCTTGCAAAGGTGAAGCCTTCACCCCCGGTCGAAGCCGCTTGGAATAAGACAGGGTTATTTTCTCCTCTCCTCGGCGCTTGCCTCTTCTAAGCTGAATAGGTTCTATCTATTCAGGCGGATGGTCTGGTCCGTTCCTTCTTGGACAGAGTGTGTATCTGGGTTTTCCGGATCTCGACCACACACTCACCAGAGCTCAGGAGTGATTAAGTCAAGGCCCGATCTGCGGCGAAAAGGAAATGAAGTATTTTGCAGCTGTAGCGACCTCTCAAGGCCAGCGGATTTCCCCACCTGGTGACAGGTGCCTCTGGGGCCAAAAGCCACGTGTTAATAGCACCCTTGAGAGCGGTGGTACCCCACCACCCTGCAAATTATGGATTTGACTTAGTAACTAAAAGATTGACTTGGCATACCTCAACCTGAGCGGCGGCTAAGGATGCCCTGAAGGTACCCGTGTTGAAATCGCTTCGGCGACCATGGATCTGATCAGGGGCCCTGCCTGGAGTGGTTCTATCCCACACAGCGTAGGGTTAAAAAACGTCTAACCGCCCCACAAAGACCCCGGCAGGGATGCCGGTTTCCTTTTTACCAATTCTTGACACT | 2.62E+06
